Results reported in patent EP4659808A2 (Sanofi, dated 2025).

Tests used:
[1] = target: T1, human beta-DG extracellular domain (human, UniProt Q14118 654-749, biotinylated in the Example 6 ELISA); experiment: SPR (Biacore), mAb immobilized, hBeta-DG in flow
T1 construct: extracellular domain; Expression of the soluble human protein is not described; also called hBeta-DG; hbeta-DG
T1 sequence (looked up): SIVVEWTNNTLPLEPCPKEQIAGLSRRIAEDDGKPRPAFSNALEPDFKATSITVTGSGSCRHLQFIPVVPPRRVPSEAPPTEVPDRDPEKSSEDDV

[2] = target: T2, murine beta-DG extracellular domain (mbeta-DG ECD) (mouse, UniProt Q62165 652-746); experiment: SPR (Biacore), mAb immobilized, mBeta-DG in flow
T2 construct: range 652-746; Made in E. coli; also called mbeta-DG-HPC4; m βDG; not shown: C-terminal HPC4 tag
T2 sequence (looked up): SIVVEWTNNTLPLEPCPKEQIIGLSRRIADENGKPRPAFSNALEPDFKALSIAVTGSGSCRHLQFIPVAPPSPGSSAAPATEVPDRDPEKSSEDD

[3] = target: T3, murine laminin G-like 5 domain (mLG-5) (mouse, UniProt Q60675 2932-3118, biotinylated (Avi tag) ; Biotinylated at the Avi tag (soluble biotinylated protein); the tag is left out of the letters.); experiment: SPR (Biacore), mAb immobilized, mLG-5 in flow
T3 construct: Soluble protein from Expi293F cells; also called murine LG-5
T3 sequence: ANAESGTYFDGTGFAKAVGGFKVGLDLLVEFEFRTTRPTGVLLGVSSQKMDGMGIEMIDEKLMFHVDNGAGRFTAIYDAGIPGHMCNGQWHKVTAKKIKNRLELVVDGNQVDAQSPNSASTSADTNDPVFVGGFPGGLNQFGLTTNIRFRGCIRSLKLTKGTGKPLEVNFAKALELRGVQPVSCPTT

[4] = target: T1, human beta-DG extracellular domain; experiment: SPR (Biacore T100), antibody captured on Protein G chip, BDG in flow, 1:1 model
[5] = target: T4, Fabrazyme (agalsidase beta, Genzyme) (UniProt P06280 32-429); experiment: dot blot
T4 construct: Negative control in the dot blots
T4 sequence (looked up): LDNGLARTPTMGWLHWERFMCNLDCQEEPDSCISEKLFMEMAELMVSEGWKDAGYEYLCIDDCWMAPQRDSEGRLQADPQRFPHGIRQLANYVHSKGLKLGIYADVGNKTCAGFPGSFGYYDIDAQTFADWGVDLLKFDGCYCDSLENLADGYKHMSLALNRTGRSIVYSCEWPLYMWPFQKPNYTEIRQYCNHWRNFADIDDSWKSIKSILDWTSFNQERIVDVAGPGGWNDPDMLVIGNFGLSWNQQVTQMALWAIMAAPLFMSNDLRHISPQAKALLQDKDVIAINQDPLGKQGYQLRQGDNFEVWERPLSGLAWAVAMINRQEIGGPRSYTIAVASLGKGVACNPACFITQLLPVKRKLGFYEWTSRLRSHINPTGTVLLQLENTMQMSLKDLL

B1: anti-beta-DG antibody derived from phage display clone B06 (antibody, V domains shown)
VH: QIQLVQSGAEVKKPGKSLKIACKGSGYSFSNYWIGWVRQMPGKGLEWMGIIYPGDSDTRYSPSFHGQVTISADKSISTAYLQWSSLKASDTAMYYCARGVIINGTTSGFDYWGQGTLVIVSS
VL: ETTLTQSPATLSVSPGERATLSCRASQSVSSNLAWYQQKPGQAPRLLMYGASTRATGIPARFSGSGSGTEFTLTISSLQSEDFAVYYCQHYNNLPLTFGGGTKVDLK
notes: Phage display clone; also called B6
Kd [1]: 2.36 nM
koff [1]: 0.00216 s⁻¹
kon [1]: 968000 M⁻¹ s⁻¹
Kd [2]: 162 nM
koff [2]: 0.00232 s⁻¹
kon [2]: 14300 M⁻¹ s⁻¹

B2: anti-beta-DG antibody phage display clone B04 (antibody, V domains shown)
VH: QVQLQQSGGGLVQPGGSLRLSCAASGFTFSSYAMSWVRQAPGKGLEWVSAISGSGGSTYYADSVKGRFTVSRDNSKNTLYLQMNSLRAEDTAVYYCARLGYCSSTSCYLSAFDIWGQGTMVTVSS
VL: EIVLTQSPSTLSASVGDRVTITCRASQSISSWLAWYQQKPGKAPKLLIYDASSLESGVPSRFSGSGSGTEFTLTISSLQPDDFATYYCQQYNSYPLTFGGGTKVEIK
notes: Phage display clone
Kd [1]: 2.57 nM

B3: anti-laminin-2 antibody derived from hybridoma clone C3 (antibody, V domains shown)
VH: DVMLVESGGDLVKPGGSLKLSCAASGFTFSSYTMSWVRQTPEKRLEWVASISSGGGNTYYPDSVKGRFTISRDNAKNNLYLQMSSLRSEDTALYYCARFDYGSSLDSWGQGTTLTVSS
VL: DIVLTQSPATLSVTPGDSVSLSCRASQSISNNLHWYQQKSHESPRLLIKYASQSISGIPSRFSGSGSGTDFTLSINSVETEDFGMYFCQQSKNWPRTFGGGTKLEIK
notes: Hybridoma-derived monoclonal antibody detected with anti-mouse IgG; Chimeric human IgG1/kappa versions were also made; also called C03; anti-laminin-2(C3)
Kd [3]: 8.27 nM

B4: triAb 3439 (bispecific antibody, human IgG1, kappa)
light 1: EIVLTQSPDFLSVTPKEKVTLTCRASQSISNNLHWYQQKSDQSPKLLIKYASQSISGIPSRFSGSGSGTDFTLTINSVEAEDAATYFCQQSKSWPRTFGGGTKLEIKDKTHTEIVLTQSPDFLSVTPGEKVTLTCRASQSISNYLHWYQQKSDQSPKLLIKYASQSISGVPSRFSGSGSGTDFTLTISSVEAEDFATYFCQQSKSWPRTFGGGTKLEIKDKTHTRTVAAPSVFIFPPSDEQLKSGTASVVCLLNNFYPREAKVQWKVDNALQSGNSQESVTEQDSKDSTYSLSSTLTLSKADYEKHKVYACEVTHQGLSSPVTKSFNRGEC
heavy 1: EVQLVESGGGLVQPGGSLRLSCAASGFTFSSYTMSWVRQAPGKGLEWVATISSSGDNTYYPDSVKGRFTISRDNSKNTLYLQMSSLRAEDTALYYCARFDYGSSLDSWGQGTTLTVSSDKTHTEVQLVESGGGLVKPGGSLRLSCAASGFTFSSYTMSWVRQAPGKGLEWVASISSSGSNTYYPDSVKGRFTISRDNAKNNLYLQMNSLRAEDTALYYCARFDYGSSLDSWGQGTLLTVSSDKTHTASTKGPSVFPLAPSSKSTSGGTAALGCLVKDYFPEPVTVSWNSGALTSGVHTFPAVLQSSGSLSSVVTVPSSSLGTQTYICNVNHKPSNTKVDKKVEPKSCDKTHTCPPCPAPELLGGPSVFLFPPKPKDTLYITREPEVTCVVVDVSHEDPEVKFNWYVDGVEVHNAKTKPREEQYNNASRVVSVLTVLHQDWLNGKEYKCKVSNKALPAPIEKTISKAKGQPREPQVYTLPPCRDELTKNQVSLWCLVKGFYPSDIAVEWESNGQPENNYKTTPPVLDSDGSFFKKLTVDKSRWQQGNVFSCSVMHEALHNHYTQKSLSLSPG
heavy 2: QVQLVQSGAEVVKPGSSVKVSCEASGFTFTDSVITWVRQRPGQGLEWIGEIYPGSGNFYYNEKFQGRVTITADKSTSTAYMELSSLRSEDTAVYFCAMRRSSWGQGTLVTVSSASTKGPSVFPLAPSSKSTSGGTAALGCLVKDYFPEPVTVSWNSGALTSGVHTFPAVLQSSGSLSSVVTVPSSSLGTQTYICNVNHKPSNTKVDKKVEPKSCDKTHTCPPCPAPELLGGPSVFLFPPKPKDTLYITREPEVTCVVVDVSHEDPEVKFNWYVDGVEVHNAKTKPREEQYNNASRVVSVLTVLHQDWLNGKEYKCKVSNKALPAPIEKTISKAKGQPREPQVCTLPPSRDELTKNQVSLSCAVKGFYPSDIAVEWESNGQPENNYKTTPPVLDSDGSFFLVSKLTVDKSRWQQGNVFSCSVMHEALHNRFTQKSLSLSPG
light 2: DVVMTQTPLSLSVTPGQPASISCKSSQTIVHSNSKTYLEWYLQKPGQSPQLLIYKVSSRFSGVPDRFSGSGSGTDFTLKISRVEAEDVGVYYCFQGSHVPLTFGQGTKLEIKRTVAAPSVFIFPPSDEQLKSGTASVVCLLNNFYPREAKVQWKVDNALQSGNSQESVTEQDSKDSTYSLSSTLTLSKADYEKHKVYACEVTHQGLSSPVTKSFNRGEC
Kd [4]: 1.3 nM
koff [4]: 0.004 s⁻¹
kon [4]: 3.07e+06 M⁻¹ s⁻¹

B5: triAb 3429 (bispecific antibody, human IgG1, kappa)
light 1: EIVLTQSPDFLSVTPGEKVTLTCRASQSISNYLHWYQQKSDQSPKLLIKYASQSISGVPSRFSGSGSGTDFTLTISSVEAEDFATYFCQQSKSWPRTFGGGTKLEIKDKTHTEIVLTQSPDFLSVTPKEKVTLTCRASQSIGNNLHWYQQKSDQSPKLLIKYASQSISGIPSRFSGSGSGTDFTLTINSVEAEDAATYFCQQSKSWPRTFGGGTKLEIKDKTHTRTVAAPSVFIFPPSDEQLKSGTASVVCLLNNFYPREAKVQWKVDNALQSGNSQESVTEQDSKDSTYSLSSTLTLSKADYEKHKVYACEVTHQGLSSPVTKSFNRGEC
heavy 1: EVQLVESGGGLVKPGGSLRLSCAASGFTFSSYTMSWVRQAPGKGLEWVASISSSGSNTYYPDSVKGRFTISRDNAKNNLYLQMNSLRAEDTALYYCARFDYGSSLDSWGQGTLLTVSSDKTHTEVQLVESGGGLVQPGGSLRLSCAASGFTFSSYTMSWVRQAPGKGLEWVATISSSGDNTYYPDSVKGRFTISRDNSKNTLYLQMSSLRAEDTALYYCARFDYGSSLDSWGQGTTLTVSSDKTHTASTKGPSVFPLAPSSKSTSGGTAALGCLVKDYFPEPVTVSWNSGALTSGVHTFPAVLQSSGSLSSVVTVPSSSLGTQTYICNVNHKPSNTKVDKKVEPKSCDKTHTCPPCPAPELLGGPSVFLFPPKPKDTLYITREPEVTCVVVDVSHEDPEVKFNWYVDGVEVHNAKTKPREEQYNNASRVVSVLTVLHQDWLNGKEYKCKVSNKALPAPIEKTISKAKGQPREPQVYTLPPCRDELTKNQVSLWCLVKGFYPSDIAVEWESNGQPENNYKTTPPVLDSDGSFFKKLTVDKSRWQQGNVFSCSVMHEALHNHYTQKSLSLSPG
heavy 2: QVQLVQSGAEVVKPGSSVKVSCEASGFTFTDSVITWVRQRPGQGLEWIGEIYPGSGNFYYNEKFQGRVTITADKSTSTAYMELSSLRSEDTAVYFCAMRRSSWGQGTLVTVSSASTKGPSVFPLAPSSKSTSGGTAALGCLVKDYFPEPVTVSWNSGALTSGVHTFPAVLQSSGSLSSVVTVPSSSLGTQTYICNVNHKPSNTKVDKKVEPKSCDKTHTCPPCPAPELLGGPSVFLFPPKPKDTLYITREPEVTCVVVDVSHEDPEVKFNWYVDGVEVHNAKTKPREEQYNNASRVVSVLTVLHQDWLNGKEYKCKVSNKALPAPIEKTISKAKGQPREPQVCTLPPSRDELTKNQVSLSCAVKGFYPSDIAVEWESNGQPENNYKTTPPVLDSDGSFFLVSKLTVDKSRWQQGNVFSCSVMHEALHNRFTQKSLSLSPG
light 2: DVVMTQTPLSLSVTPGQPASISCKSSQTIVHSNSKTYLEWYLQKPGQSPQLLIYKVSSRFSGVPDRFSGSGSGTDFTLKISRVEAEDVGVYYCFQGSHVPLTFGQGTKLEIKRTVAAPSVFIFPPSDEQLKSGTASVVCLLNNFYPREAKVQWKVDNALQSGNSQESVTEQDSKDSTYSLSSTLTLSKADYEKHKVYACEVTHQGLSSPVTKSFNRGEC
Kd [4]: 1.9 nM
koff [4]: 0.00404 s⁻¹
kon [4]: 2.13e+06 M⁻¹ s⁻¹

B6: anti-beta-DG antibody derived from hybridoma clone AS30 (antibody, V domains shown)
VH: QIQLQQSGPELVKPGASVKMSCEASGFTFTDSVITWVKQRPGQGLEWIGEIYPGSGNFYYNEKFKGKATLTADKSSNTAYMQLRSLTSEDSAVYFCAMRRSSWGQGTLVTVSA
VL: DVLMTQTPLSLPVSLGDQASISCRSSQTIVHSNSKTYLEWYLQKPGQSPKLLIYKVSNRFSGVPDRFSGSGSGTDFTLKISRVEAEDLGVYYCFQGSHVPLTFGAGTKLELK
notes: detected with anti-mouse IgG
Kd [1]: 1.08 nM
koff [1]: 0.000963 s⁻¹
kon [1]: 890000 M⁻¹ s⁻¹
Kd [2]: 1.48 nM
koff [2]: 0.00113 s⁻¹
kon [2]: 773000 M⁻¹ s⁻¹
binding result [5]: no binding

B7: anti-beta-DG antibody derived from hybridoma clone AS19 (antibody, V domains shown)
VH: QVQLQQSGPELVKPGASVKMSCKASGFTFTDSVISWVKQRTGQGLEWIGEIYPGSGSIYYNEKFKGKATLTADKSSNTAYMQLRSLTSEDSAVYFCAMRRSYWGQGTLVTVSA
VL: DVLMTQTPLSLPVSLGDQASISCRSSQSIVHSNGNTYLEWYLQKPGQSPKLLIYKVSNRFSGVPDRFSGSGSGTDFTLKISRVEAEDLGVYYCFQGSHVPLTFGAGTKLELK
notes: Hybridoma-derived monoclonal antibody detected with anti-mouse IgG; also called parental anti-beta-DG (clone AS19)
binding result [5]: no binding
